One may read the Kd as the equilibrium constant for the complex coming apart. Low values mean tighter binding, high ones weaker binding.

Series [1] addresses T1, DNA polymerase IV (Dpo4) (Sulfolobus solfataricus, UniProt Q97W02 1-352).
T1 sequence: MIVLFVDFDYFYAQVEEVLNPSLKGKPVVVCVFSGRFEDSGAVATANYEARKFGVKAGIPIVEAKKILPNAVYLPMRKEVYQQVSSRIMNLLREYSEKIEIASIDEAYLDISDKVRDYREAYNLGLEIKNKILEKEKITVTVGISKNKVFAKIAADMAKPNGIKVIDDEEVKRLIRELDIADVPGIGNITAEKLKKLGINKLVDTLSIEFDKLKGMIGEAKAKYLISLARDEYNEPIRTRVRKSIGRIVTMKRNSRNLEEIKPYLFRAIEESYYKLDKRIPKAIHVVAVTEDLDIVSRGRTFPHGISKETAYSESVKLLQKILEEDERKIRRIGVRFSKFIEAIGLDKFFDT
Briefly: EMSA. (In EMSA bound probe runs differently from free probe, usually more slowly.)

The target of series [2] is T1, DNA polymerase IV (Dpo4). Briefly: EMSA. The source holds these as a separate data set.

Read-outs that look alike come from different tables or passages of the source.

B1: 20/26-mer-dG1,8 (dsDNA)
DNA 1: AACGACGGCCAGTGAATTCG
DNA 2: CCCGCGCGAATTCACTGGCCGTCGTT
modifications: template G6 (from 5') is dG1,8 = 8-(deoxyguanosin-N2-yl)-1-aminopyrene; lesion is the templating base
Molecule B1 yielded a Kd with DNA polymerase IV (Dpo4) [1] of 9 ± 2 nM.

B2: 21/26-mer-dG1,8 (dsDNA)
DNA 1: AACGACGGCCAGTGAATTCGC
DNA 2: CCCGCGCGAATTCACTGGCCGTCGTT
modifications: template G6 (from 5') is dG1,8 = 8-(deoxyguanosin-N2-yl)-1-aminopyrene; lesion paired with primer 3' end
As for B2, the Kd in the series with DNA polymerase IV (Dpo4) [2] is 27 ± 3 nM.

The values are drawn from publication PMC4582013.
